Measurements as given in the DeepSol protein solubility set.

Assay: soluble on expression in E. coli; label from the status in PepcDB or PDB records
With “AKDFEWNFAATLSMDKNKVTRLYGDNDVVYNVDSDRNIQKEGNLFLGESRNTIYIWKTGGIAQEIDMDRLNKINWNGYNVNPGDLYPLDYDNNGQIDQNDRVVIGSTDPKFYGGFSTDFSWKGLSLNAVFSYSYGAKKLSPWYETLIGSTGSGVASTDLLDRWTPENTDAEFPRVLAGFDYNHYGASSMDFSVQKASFLRLSALTLAYTFPTKVINALKLTNLRVYATGSNLFCLTNYNGYDPETGDWYPPTRMYTFGLNLAF” the “soluble on expression in E. coli” value was “not soluble”.
For “MGSDKIHHHHHHMIRGLRQIEPYVAGVQPAERKMIKLNTNENAYGASPKVREALANFDVDNLRKYSTLEQADLRAALANNLKVKPEQLMIANGSDDVLSIAFLAFFNNDEPVLFPDLTYGFYKVWADLYRVNYHEIPLAEDFTINTEDYLADNGGIILTNPNAPTGIYKPLNEIEKLLKANQDTVVIIDEAYISFGGQSALSLLNKYNNLVITRTFSKDAALAGLRVGYAIANEPLIAVMNAVKHSINPYSVDLLAERLATAAVEDWSYYQENAKKIQKTRAWFSEQLVKQGFDVLPSQANFVLTKPHDLATAKLFEELEARKIYVRYFPKVERIKDYLRISMGTQEEMEEVVKAIEEIRG”, the “soluble on expression in E. coli” value was “not soluble”.
With “MSVPGPSSPDGALTRPPYCLEAGEPTPGLSDTSPDEGLIEDLTIEDKAVEQLAEGLLSHYLPDLQRSKQALQELTQNQVVLLDTLEQEISKFKECHSMLDINALFAEAKHYHAKLVNIRKEMLMLHEKTSKLKKRALKLQQKRQKEELEREQQREKEFEREKQLTARPAKRM” the “soluble on expression in E. coli” value was “soluble”.
For “MHTIELRNISKVIKNNIVLSNINYKFESGKVYGLKGRNGSGKSMLLRTISGLIRPTSGSVIIDGKELHKEIESPGNIGIVVENAGLYPDFTGFYNLKYLAGIMGQISDDEIINAIKRVGLDLYDKKIVKKYSLGMKQKIVIAQAIMEKPDFLLLDEPTNALDESGVKLLREIVQEEATRGALVIIASHNQEDIELLCDKVIIMADGKISDEYVNSREMNLCSEETQ”, the “soluble on expression in E. coli” value was “not soluble”.
With “MQVNEEGFAIDDKEYAMKTELKFASKHSSRLKIERNVMESYSKCDAQCKEHFSELIDFGQSPVWKWIVMTIVGPSLEELKMKYKPSDIPPSTILQCGLQTMKAIHDFHQIGFLHRDIKPANYCIGYGSKSETIYVLDFGLARKYRLPNGQVRPPRPKTKMIGTPRYCSRASHRCEELGRRDDYESWFFMFIDLVDTTLIDWKGLTRPDAYAKKQELFTKLKTYEKHPMFKVISIYLDNLVYDSEVKFGVLREAITDYARGCKLTLKEPLVWFNQSTCPSPSTAPGTGASRMATNIDLKSIASDRNEENSLDRSKTGTLSFNNSKNKKPSRY” the “soluble on expression in E. coli” value was “not soluble”.
For “MVPAESNAVQAKLAKTLQRFENKIKAGDYYEAHQTLRTIANRYVRSKSYEHAIELISQGALSFLKAKQGGSGTDLIFYLLEVYDLAEVKVDDISVARLVRLIAELDPSEPNLKDVITGMNNWSIKFSEYKFGDPYLHNTIGSKLLEGDFVYEAERYFMLGTHDSMIKYVDLLWDWLCQVDDIEDSTVAEFFSRLVFNYLFISNISFAHESKDIFLERFIEKFHPKYEKIDKNGYEIVFFEDYSDLNFLQLLLITCQTKDKSYFLNLKNHYLDFSQAYKSELEFLGQEYFNIVAPKQTNFLQDMMSGFLGGSK”, the “soluble on expression in E. coli” value was “soluble”.
With “PPLVANQVVTCPDKKSTAAVILTPTENHFTLKCPKTALTEPPTLAYSPNRQICPAGTTSSCTSKAVTLSSLIPEAEDSWWTGDSASLDTAGIKLTVPIEKFPVTTQTFVVGCIKGDDAQSCMVTVTVQARASSVVNNVARCSYGADSTLGPVKLSAEGPTTMTLVCGKDGVKVPQDNNQYCSGTTLTGCNEKSFKDILPKLTENPWQGNASSDKGATLTIKKEAFPAESKSVIIGCTGGSPEKHHCTVKLEFAG” the “soluble on expression in E. coli” value was “soluble”.
With “QGWEKALYTLVTLYVTTRVIDAIHTRHMKLTAMIVTKKADEIKEAIYGKMVRGITTVPAKGAFTNEQKEMMIIVITRYELYDLEKIVKEVDPKAFTNIVQTTGIFGFFRKD” the “soluble on expression in E. coli” value was “not soluble”.
With “LIERIEGFEPQWWEQGGAKPEKPEMREPRQRNRYESAKAQREKNTRPENAANDAGAACGKIAGRSRRSRREHRTCALLQPRYGVK” the “soluble on expression in E. coli” value was “soluble”.
In the case of “KNVWIFAEQREGKIAPVVIELLGEGRKLAKEVDAELCAILLGKDVDGLAKELITFGADKVYVADDALLEKYTTDAYTKVIKDAIDEIKPEIMLFGATHIGRDLAPRIASRVGTGLTADCTKLEIDPEDKKIKQTRPAFGGNIMATIICPNHRPQMSTVRPGVMDKAEKDETRTGEVIALDYKITQDDIRTTVLETV”, the “soluble on expression in E. coli” value is reported as “not soluble”.
